Assay results: patent US20230416365A1 (Hoffmann-La Roche, published 2023)
Substitutions are numbered along the chain they refer to.

T1: N(A2B2)A-avi-His (biotinylated at the avi tag)
T1 construct: also called biotinylated N(A2B2)A-avi-His
T1 chain: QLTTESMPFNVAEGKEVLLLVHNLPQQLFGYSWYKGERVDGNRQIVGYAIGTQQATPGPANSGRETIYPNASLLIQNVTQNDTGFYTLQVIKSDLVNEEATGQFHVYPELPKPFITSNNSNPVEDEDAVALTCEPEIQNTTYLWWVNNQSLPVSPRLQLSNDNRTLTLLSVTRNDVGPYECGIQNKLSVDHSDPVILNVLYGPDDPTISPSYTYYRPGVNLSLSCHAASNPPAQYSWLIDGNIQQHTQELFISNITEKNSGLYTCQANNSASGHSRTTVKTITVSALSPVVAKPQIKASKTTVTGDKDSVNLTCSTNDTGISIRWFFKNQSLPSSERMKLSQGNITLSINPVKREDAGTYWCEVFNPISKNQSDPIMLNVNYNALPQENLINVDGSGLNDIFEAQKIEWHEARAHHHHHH

T2: NA(B2)A-avi-His (biotinylated at the avi tag)
T2 chain: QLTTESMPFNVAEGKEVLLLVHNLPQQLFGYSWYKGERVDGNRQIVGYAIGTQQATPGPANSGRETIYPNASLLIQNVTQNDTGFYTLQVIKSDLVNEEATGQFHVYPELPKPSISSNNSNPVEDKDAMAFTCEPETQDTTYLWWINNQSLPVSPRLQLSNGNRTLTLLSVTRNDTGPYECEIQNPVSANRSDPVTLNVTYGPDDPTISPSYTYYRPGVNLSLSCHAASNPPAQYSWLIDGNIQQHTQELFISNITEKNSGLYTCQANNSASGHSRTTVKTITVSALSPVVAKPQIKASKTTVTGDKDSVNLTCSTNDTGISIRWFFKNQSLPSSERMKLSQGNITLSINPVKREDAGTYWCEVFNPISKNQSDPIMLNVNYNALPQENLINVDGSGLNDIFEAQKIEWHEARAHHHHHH

T3: human CD19 on Nalm6 B cells (human, UniProt P15391 20-556)
T3 sequence: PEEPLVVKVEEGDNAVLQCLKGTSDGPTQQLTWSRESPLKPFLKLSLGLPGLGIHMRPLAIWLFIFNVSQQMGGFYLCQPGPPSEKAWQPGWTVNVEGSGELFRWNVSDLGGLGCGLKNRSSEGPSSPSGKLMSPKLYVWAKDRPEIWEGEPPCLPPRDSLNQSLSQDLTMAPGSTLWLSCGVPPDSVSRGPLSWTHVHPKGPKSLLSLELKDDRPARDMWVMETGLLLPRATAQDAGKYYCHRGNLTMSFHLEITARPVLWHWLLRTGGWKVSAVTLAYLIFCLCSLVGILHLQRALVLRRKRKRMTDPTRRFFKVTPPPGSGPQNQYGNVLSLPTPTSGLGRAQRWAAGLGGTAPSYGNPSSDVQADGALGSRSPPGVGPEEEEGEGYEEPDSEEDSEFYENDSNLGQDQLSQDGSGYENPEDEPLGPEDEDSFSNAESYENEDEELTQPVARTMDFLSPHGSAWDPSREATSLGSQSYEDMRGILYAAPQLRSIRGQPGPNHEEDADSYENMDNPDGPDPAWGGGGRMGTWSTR

B1: P001.177 Fab (Fab, V domains shown)
VH: EVQLLESGGGLVQPGGSLRLSCAASGFYFTDYYMNWVRQAPGKGLEWLGFISNKANAYTTEYSASVKGRFTISRDKSKNTLYLQMNSLRAEDTATYYCTRDRGLRFYFDYWGQGTTVTVSS
VL: EIVLTQSPATLSLSPGERATLSCRASSSVTYIHWYQQKPGQAPRSWIYATSNLASGIPARFSGSGSGTDFTLTISSLEPEDFAVYYCQHWSSKPPTFGQGTKLEIK
notes: Fab from E. coli
B2: P006.038 Fab (Fab, V domains shown)
VH: B1 VH with Y28T, S52G, L104I, Y107G
VL: B1 VL with K93V
notes: Fab from E. coli
B3: P005.103 Fab (Fab, V domains shown)
VH: B1 VH with Y28T, S52G, L104I
VL: B1 VL with K93I, P94S
notes: Fab from E. coli
B4: P005.102 Fab (Fab, V domains shown)
VH: B1 VH with Y28T, S52G, L104I, Y107Q
VL: B1 VL with P94S
notes: Fab from E. coli
B5: P002.139 Fab (Fab, V domains shown)
VH: B1 VH with Y33A, F50V
VL: B1 VL with R24H
notes: Fab from E. coli
B6: P005.097 Fab (Fab, V domains shown)
VH: B1 VH with Y28T, S52G, Y107S
VL: B1 VL with K93Q
notes: Fab from E. coli
B7: CD19 (8B8-2B11)-CD28 (SA_v8) 1+1 (Molecule 18C) (bispecific antibody, human IgG1, kappa, L234A L235A)
heavy 1: not shown
light 1: not shown
heavy 2: DIVMTQTPLSLSVTPGQPASISCKSSQSLETSTGTTYLNWYLQKPGQSPQLLIYRVSKRFSGVPDRFSGSGSGTDFTLKISRVEAEDVGVYYCLQLLEDPYTFGQGTKLEIKSSASTKGPSVFPLAPSSKSTSGGTAALGCLVKDYFPEPVTVSWNSGALTSGVHTFPAVLQSSGLYSLSSVVTVPSSSLGTQTYICNVNHKPSNTKVDKKVEPKSCDKTHTCPPCPAPEAAGGPSVFLFPPKPKDTLMISRTPEVTCVVVDVSHEDPEVKFNWYVDGVEVHNAKTKPREEQYNSTYRVVSVLTVLHQDWLNGKEYKCKVSNKALGAPIEKTISKAKGQPREPQVCTLPPSRDELTKNQVSLSCAVKGFYPSDIAVEWESNGQPENNYKTTPPVLDSDGSFFLVSKLTVDKSRWQQGNVFSCSVMHEALHNHYTQKSLSLSP
light 2: QVQLVQSGAEVKKPGASVKVSCKASGYTFTDYIMHWVRQAPGQGLEWMGYINPYNDGSKYTEKFQGRVTMTSDTSISTAYMELSRLRSDDTAVYYCARGTYYYGPQLFDYWGQGTTVTVSSASVAAPSVFIFPPSDEQLKSGTASVVCLLNNFYPREAKVQWKVDNALQSGNSQESVTEQDSKDSTYSLSSTLTLSKADYEKHKVYACEVTHQGLSSPVTKSFNRGEC
notes: huIgG1 PG-LALA CrossFab; also called P1AF0175; CD19-CD28 v8
B8: CD19 (8B8-2B11)-CD28 (SA_v27) 1+1 (Molecule E of Example 18; 18E) (bispecific antibody, human IgG1, kappa, L234A L235A)
heavy 1: not shown
light 1: not shown
heavy 2: B7 heavy 2
light 2: B7 light 2
notes: huIgG1 PG-LALA CrossFab; also called P1AF0378; CD19-CD28 v27
B9: CD19 (8B8-2B11)-CD28 (SA_v29) 1+1 (Molecule 18A) (bispecific antibody, human IgG1, kappa, L234A L235A)
heavy 1: not shown
light 1: not shown
heavy 2: B7 heavy 2
light 2: B7 light 2
notes: huIgG1 PG-LALA CrossFab; also called P1AE8002; CD19-CD28 v29
B10: CD19 (8B8-2B11)-CD28 (SA_v11) 1+1 (Molecule D of Example 18; 18D) (bispecific antibody, human IgG1, kappa, L234A L235A)
heavy 1: not shown
light 1: not shown
heavy 2: B7 heavy 2
light 2: B7 light 2
notes: huIgG1 PG-LALA CrossFab; also called P1AF0377; CD19-CD28 v11
B11: CD19 (8B8-2B11)-CD28 (SA_v15) 1+1 (Molecule 18B) (bispecific antibody, human IgG1, kappa, L234A L235A)
heavy 1: not shown
light 1: not shown
heavy 2: B7 heavy 2
light 2: B7 light 2
notes: huIgG1 PG-LALA CrossFab; also called P1AE9040; CD19-CD28 v15
B12: FAP (4B9) - CD28 (CD28(SA)_Variant 19) 1+1 (bispecific antibody, human IgG1, kappa, L234A L235A)
heavy 1: EIVLTQSPGTLSLSPGERATLSCRASQSVTSSYLAWYQQKPGQAPRLLINVGSRRATGIPDRFSGSGSGTDFTLTISRLEPEDFAVYYCQQGIMLPPTFGQGTKVEIKSSASTKGPSVFPLAPSSKSTSGGTAALGCLVKDYFPEPVTVSWNSGALTSGVHTFPAVLQSSGLYSLSSVVTVPSSSLGTQTYICNVNHKPSNTKVDKKVEPKSCDKTHTCPPCPAPEAAGGPSVFLFPPKPKDTLMISRTPEVTCVVVDVSHEDPEVKFNWYVDGVEVHNAKTKPREEQYNSTYRVVSVLTVLHQDWLNGKEYKCKVSNKALGAPIEKTISKAKGQPREPQVCTLPPSRDELTKNQVSLSCAVKGFYPSDIAVEWESNGQPENNYKTTPPVLDSDGSFFLVSKLTVDKSRWQQGNVFSCSVMHEALHNHYTQKSLSLSP
light 1: EVQLLESGGGLVQPGGSLRLSCAASGFTFSSYAMSWVRQAPGKGLEWVSAIIGSGASTYYADSVKGRFTISRDNSKNTLYLQMNSLRAEDTAVYYCAKGWFGGFNYWGQGTLVTVSSASVAAPSVFIFPPSDEQLKSGTASVVCLLNNFYPREAKVQWKVDNALQSGNSQESVTEQDSKDSTYSLSSTLTLSKADYEKHKVYACEVTHQGLSSPVTKSFNRGEC
heavy 2: not shown
light 2: not shown
notes: huIgG1 PG-LALA CrossFab 1+1; also called P1AE3137
B13: FAP (4B9) - CD28 (CD28(SA)_Variant 23) 1+1 (bispecific antibody, human IgG1, kappa, L234A L235A)
heavy 1: B12 heavy 1
light 1: B12 light 1
heavy 2: not shown
light 2: not shown
notes: huIgG1 PG-LALA CrossFab 1+1; also called P1AE3138
B14: FAP (4B9) - CD28 (CD28(SA)_Variant 29) 1+1 (bispecific antibody, human IgG1, kappa, L234A L235A)
heavy 1: B12 heavy 1
light 1: B12 light 1
heavy 2: not shown
light 2: not shown
notes: huIgG1 PG-LALA CrossFab 1+1; also called P1AE3141
B15: FAP (4B9) - CD28 (CD28(SA)_Variant 25) 1+1 (bispecific antibody, human IgG1, kappa, L234A L235A)
heavy 1: B12 heavy 1
light 1: B12 light 1
heavy 2: not shown
light 2: not shown
notes: huIgG1 PG-LALA CrossFab 1+1; also called P1AE3139

Assays:
[1] = molecular target: T1, N(A2B2)A-avi-His; test: SPR off-rate, ProteOn, antigen on NLC chip, Fab in bacterial supernatant
[2] = molecular target: T1, N(A2B2)A-avi-His; test: SPR, ProteOn, antigen on NLC chip, purified Fab as analyte
[3] = molecular target: T2, NA(B2)A-avi-His; test: SPR, ProteOn, 2000 RU NA(B2)A-avi-His on NLC chip, Fab in bacterial supernatant
[4] = molecular target: T4, human CD28 on CHO cells (parental cell line CHO-k1 ATCC #CCL-61, modified to stably overexpress human CD28) (human, UniProt P10747 19-220); test: flow cytometry on CHOk1-CD28 cells
T4 construct: also called hu CD28; CHO-hCD28

[5] = molecular target: T3, human CD19 on Nalm6 B cells; test: flow cytometry on Nalm6 B cells
[6] = molecular target: T4, human CD28 on CHO cells (parental cell …); test: binding to CHO cells expressing human CD28 (by the table's title)
[7] = molecular target: T5, biotinylated huCD28-Fc (dimeric CD28-Fc construct with a monovalent biotinylated avi-tag) (human, UniProt P10747 19-152, biotinylated at the C-terminal avi tag); test: SPR, ProteOn XPR36, huCD28-Fc on NLC chip, bispecific as analyte
T5 construct: not shown: hum IgG1 Fc fragment with hole and PG-LALA mutations; hum IgG1 Fc fragment with knob and PG-LALA mutations

[8] = molecular target: human FAP on 3T3-huFAP cells (clone 19) (human, UniProt Q12884 1-760); test: flow cytometry on 3T3-huFAP cells, FAP-CD28 1+1 constructs, MFI (PE)

Binder | koff [1] [s⁻¹] | Kd [2] [nM] | koff [2] [s⁻¹] | kon [2] [M⁻¹ s⁻¹] | binding result [3] | EC50 [4] [nM] | EC50 [5] [nM] | also measured
B1 | 9.81e-05 | 0.29 | 7.85e-05 | 267000 | no binding |  |  | 
B2 | 7.41e-05 | 0.25 | 5.78e-05 | 225000 | no binding |  |  | 
B3 | 5.37e-05 | 0.5 | 4.99e-05 | 100000 | no binding |  |  | 
B4 | 4.24e-05 | 0.29 | 3.92e-05 | 134000 | no binding |  |  | 
B5 | 6.47e-05 | 0.63 | 6.53e-05 | 105000 | no binding |  |  | 
B6 | 8.87e-05 | 0.91 | 8.54e-05 | 94000 | no binding |  |  | 
B7 |  |  |  |  |  | 232 | 0.232 | 
B8 |  |  |  |  |  | 10.8 | 0.368 | 
B9 |  |  |  |  |  | 6.65 | 0.274 | 
B10 |  |  |  |  |  | 150 | 0.363 | 
B11 |  |  |  |  |  | 15.6 | 0.416 | 
B12 |  |  |  |  |  |  |  | Kd [6]: 1.1 nM; Kd [7]: 1.1 nM; koff [7]: 0.000304 s⁻¹; kon [7]: 280000 M⁻¹ s⁻¹; binding result [8]: binds
B13 |  |  |  |  |  |  |  | Kd [6]: 16.3 nM; Kd [7]: 16.3 nM; koff [7]: 0.00342 s⁻¹; kon [7]: 211000 M⁻¹ s⁻¹; binding result [8]: binds
B14 |  |  |  |  |  |  |  | Kd [6]: 1.1 nM; Kd [7]: 1.1 nM; koff [7]: 0.000307 s⁻¹; kon [7]: 272000 M⁻¹ s⁻¹; binding result [8]: binds
B15 |  |  |  |  |  |  |  | Kd [6]: 1.7 nM; Kd [7]: 1.7 nM; koff [7]: 0.000396 s⁻¹; kon [7]: 238000 M⁻¹ s⁻¹; binding result [8]: binds
